Experimental findings from publication PMC4756307 are described below.

This series has as its target T1, CodY (6His-CodY) (Streptococcus suis serotype 2 (strain SC19?)) (UniProt A0A0H3MTH0).
T1 sequence: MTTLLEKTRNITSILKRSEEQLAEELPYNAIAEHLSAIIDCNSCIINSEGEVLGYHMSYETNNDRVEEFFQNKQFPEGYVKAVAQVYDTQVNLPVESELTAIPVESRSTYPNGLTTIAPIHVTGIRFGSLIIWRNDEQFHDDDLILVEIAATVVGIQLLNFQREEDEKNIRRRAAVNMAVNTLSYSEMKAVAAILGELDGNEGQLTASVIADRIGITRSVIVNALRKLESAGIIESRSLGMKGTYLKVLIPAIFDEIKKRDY
The series can be described thus: EMSA. The note with it: EMSA: 1 ug PCR product with 0-2200 ng CodY in binding buffer (Beyotime; composition, pH and salt not given), 30 min at 37 C, native PAGE, ethidium bromide …. (In EMSA bound probe runs differently from free probe, usually more slowly.)
Regarding “TCTGTATTTATCATTGTAGTCCTATCTGCAACAGTAGAAAATTATATTGTAAATTTAAGTTTTGTATTTATGCCAATATGTTTTTGTTTATTAAATTCTATATCTACTATGGAATCAACTATTAACAAACAACTGCAAACATAAATTGGCAGGAATAGAGTTTTGAGTTGCTATTAATTTGGTAGAGCATATGTTCTATAGGTGGCAAGATAGAAGATAGTATTTTTTACATGATGATTTTTATGATAGCA (double strand) [cps2J promoter]”, the binding result was “binds”. Then “AATACAAGCGACGATTCCCTTCGTTGCGATCGGGCTTAATCAAGCCTTGATCTTCATAGTAACGAATTTGACGAGCAGTTAAATCTGTCAACTTCATCACACTACCGATCGGAAAGATAGCTAAGGAACGACGAAACTCTTTTTCTCTCATAATGAACTCCTTTCTGCCTACCATTATAGGAGAATTTTTTTTTGAGGTCAATAGGTGATGTTATATTTTATAACATCATTTATCCTGAAAACGTTTTTTTATAACATTCACATCATAATTAACTAGAATCGCAATGAAAACTCC (double strand) [glnR promoter]”, with “binds”; and “GGACGTATGCGCCTCTGCTTATGCCAGAAGTCATGAGGTAAATCTCCCTAAAAATTGGGTAGAAAAGCAGATTAAACTTCCACCAATCTATTGAAGATCGTGTGAAGAAGCAGGCTTTAGAAGCAACAAGCCCTGAGACTATTCGAAAGAAATCTAGGGCTATTTTTTCTAATCGGCTATCAGAAGTGAAGTAGCGATCTTTATTAGTGTTCTTTTACTACTTAAGGAAAACCAAGCTGCTCCCTCAAGACTTTATGGGAGCGATTTACAGTCATTT (double strand) [neuB (neu) promoter]”, with “no binding”.

Take “ATCTCGGTCTTTGGTTGTTTGGCTTTACAGCTCTATACTTTGTGGCAGCTTATCTGATTGCCCTCAATCCATCTCAAATCTTAAATAGTATCGGACGTATTTTAACCCCTGTTTTTGCGATTTTGATTGTGATTTTGGTGGTGCTTGGTATTGTTAAGTACGGATCAACAAGTCCGTTACCAGCTTCGGAAGCTTACTCAGCAGGACAGGCATTTGGTACAGGATTTATCGAGGGATACAATACACTCGACGCACTTGCTTCTATTGCTTTTAGTGTCGTAGCAGTAAATACCT (double strand) [bap2 promoter]”: the binding entry was “binds”.
